Test results published in the nanobody polyreactivity screen of Harvey et al. (2022).

Test: yeast display, Sf9 membrane polyspecificity reagent, FACS + sequencing; frameworks hold sequencing errors
Outline: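 Galactose induction of a Saccharomyces cerevisiae BJ5465 synthetic nanobody display library ran 36–48 hours. The cells were then stained for 1 hour at 4 °C with 10% biotinylated, detergent-solubilized Sf9 membrane reagent, pulled down on streptavidin microbeads and FACS-sorted into low and high (top ~1%) gates on expression and reagent-binding fluorescence. Labels for polyreactivity follow the gate of origin.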

Row | Sequence | polyreactivity (PSR sort gate)
1 | QVQLVESGGGLVQAGCSLRLSCAASGSTFYRYAMGWYRQAPGKERELVAAITSGTGTYYADSVKGRFTISRDNAKNTVYLQMNSLKPEDTAVYYCNARRYLRGYWGQGTQVTVSS | low polyreactivity
2 | QVQLVESGGGLVQAGCSLRLSCAASGSTLSFNAMGWYRQAPGKERELVAGITYSGGSTYYADSVKGRFTISRDNAKNTVYLLMNSLKPEDTAFYYCNKACGVYYGHLDYWGQGTQVTVSS | low polyreactivity
3 | QVQLVESGGGLVQAGCSLRLSCAASGYNLFAYAMGWYRQSPGKERELVATINTSGGITYYADSVNGRFTISRDIANNTVYLQMNSLKPEDTAVYYCAAADGGGLVTYYYWGQGTQVTVSS | low polyreactivity
4 | QVQLVESGGGLVQAGCSLRLSCAATGSFFGFYSMGWYRQAPGKEMELVASITISGGSTYYADSVKGRFTISRDNAKNNVYLQMNSLKLEDTAVYFCAAETYAYLFHTYDYWGQGTHVTVSS | low polyreactivity
5 | QVQLVESGGGLVQAGCSLRLSCASSGRIFYGNAMGWYRQAPGKERELVAAISKSGASTYYADSVKGRFTISRDNAKNTVYLQMNSLKPEDTAVYYCAAETPRRKYNYWGQGSQVTVSS | high polyreactivity
6 | QVQLVESGGGLVQAGCSLRLSSAASGFTFGYYGMGWYRQAPGKERELVAAISQSSTDTYYADSVKGRFTISRDNAKNTVYLQMNSLKPEDTPVYYCAAHPTDSEYDDYEYWGQGTQVTVSS | low polyreactivity
7 | QVQLVESGGGLVQAGCSLRLSWAASGNIFKGYAMGWSRQAPGKERELVAAISKSGGSTYYADSVKGRFTISRDNAKNTVYLQMNSLKPEDTAVYYCNTYTYAGYNFWGQGTQVTVSS | high polyreactivity
8 | QVQLVESGGGLVQAGDSLRLSCGASGRTFYPYAMGWYRQAPGKERELVAAITWSGGSTYYADSVKGRFTISRDNAKNTVYLQMNSLKPEDTAVYFCNAAELTYDLYDYCGQGTQVTVSS | low polyreactivity
9 | QVQLVESGGGLVQAGGCLRLSCAASGRIFTTNPMGWYRPAPGKERELVARITYSGTSTYYADSVKGRFTISRDNAMNTVYLQMNSLKPEDTAVYYCAAKVWWRKYQLLDYYYWGQGTQVTVSS | high polyreactivity
10 | QVQLVESGGGLVQAGGCLRLSCAASGRILYYYAMGWYRQAPGKERELVAAINSSGGSTYYADSVKGRFTISRDNAKNTVYLQMNSLKPEDTAVFYCAALRGNVLWYPPSYFRYDYWGQGTQVTVSS | high polyreactivity
11 | QVQLVESGGGLVQAGGCLRLSCAASGRTFPRYAMGWYIQAPGKVRELVAVISFSGDSTSYADSVKGRFTISRDTAKNTVYIQMNSRKPEDTAVYYCIADYKSTVFRYSGSRNYWGQGTQVTVSS | low polyreactivity
12 | QVQLVESGGGLVQAGGCLRLSCAASGSIFCVYVMGWYRQEPVKERELVAAITRGASTNYADSVKGRFTISRDNAKNTVYLQMNSLKPEDTAVYYCAARQVSVSGHQYGYWGQGTQVTVSS | low polyreactivity
13 | QVQLVESGGGLVQAGGCLRLSCAASGSIFDYYTMGWYREAPGNEREFVAGISDSGGSTTYADSVKGRFTISRDNAKNTVYLQMNSLKPEDTAVYYCNAEYVGWFYKYDYWGQGTQVTVSS | high polyreactivity
14 | QVQLVESGGGLVQAGGCLRLSCAASGSTFYGYAMGWYRQAPGKERELVAAISRIGSSTYYADSVKGRFTISRDNAKITVYLQMNSLKPEDTAVYYCAADTWKVFGVDYWGQGTQVSVSS | high polyreactivity
15 | QVQLVESGGGLVQAGGCLRLSGAASVYTYRKYAMGWSRQAPGNERELVAAISASGGSTYYADSVKGRFTISRDKAKNTVYLPMNSLKPEDTAVYYCAKVPVTVYSRPFDYWGQGTQVTVSS | high polyreactivity
16 | QVQLVESGGGLVQAGGGLRLSCAASGTFKRNAMGWYRQAPGKERELVATITRTGSTTYADSVKGRFTISRDNAKNTVYLQMNSLKPEDTAVYYCAAGYPPEDPEDYWGQGTQVTVSS | low polyreactivity
17 | QVQLVESGGGLVQAGGILLLSCAASGRTFRVNTMGWYRQAPGTESELVAAISYSGASTYYADSVKGRFTISRDNAKNTVYLQMNSLKPEDTAVYYCAAAVGVALNDYWGQGTQVTVSS | high polyreactivity
18 | QVQLVESGGGLVQAGGILRISCAASGFIFWKNAMGWYRQAPGKERELVAAISRGGSTYYADSVKGRFTISRDNAKKTVYLQMNSLKPEDTAFYYCNKVGGATDKYLYYYWGQATQVTVSS | high polyreactivity
19 | QVQLVESGGGLVQAGGILRLICAASGLTFYRYAMGWYRQAPGKERELVAAINSRGSTYADSVKGRFTISRDNAKNTVYFQMNSLKPEDSAVYYCAARGRYRLYGYWGQVTQVTVSS | high polyreactivity
20 | QVQLVESGGGLVQAGGILRLICAASGSTFPYNAMGWYRQAPGKERELVAAISSGGSTYYADSVNGRFTISRDNAKNTVYLELNSQKPEDTAVYYCAASLGKYIRSLGYGYWGQGTQVTVSS | high polyreactivity
21 | QVQLVESGGGLVQAGGILRLSCAASGFIFALNAMGWYRQAPGKERELVATIDSTSGSTYYADSVKGRFTISRDNAKNTVYLQMNSLKPEDTAVYYCAVVHAQSAPMDYWGQGTQVTVSS | low polyreactivity
22 | QVQLVESGGGLVQAGGILRLSCAASGFIFKSYAMGWYRQAPGKERELVAGITRRGGSTYYADSVKGRFTISRDNAKNTVYLQMNILKPEDTAVYYCNAGRKTADYDFLGQGTQVTVSS | high polyreactivity
23 | QVQLVESGGGLVQAGGILRLSCAASGFNFSSYAMAWYRQAPGKERELVAAISGSGGTTYYADSVKGRFTISRDNANNTVYVLMNSLKPEDTAVYYCATRRGLVITKYGYDYWGQGTQVTVSS | high polyreactivity
24 | QVQLVESGGGLVQAGGILRLSCAASGFTFYRNAMGWYRQAPGKERELVAAISIRSGRTYYADSLKGRFTISRDNAKNSVYLQMNSLKPEDTAVYYCNKVRLPRDPYNYWGQGTQVTVSS | high polyreactivity
25 | QVQLVESGGGLVQAGGILRLSCAASGGIFSVYAMGWYRQAPGKERELVASITVSGGSTSYADSVKGRFTISRDNAKNTVYLQMNCLKPEDTAVYYCAADLLRYFGYYDYDSWGQGTQVTVSS | low polyreactivity
26 | QVQLVESGGGLVQAGGILRLSCAASGITFKPYGMGWYRQAHGKESELVADITSGGITYYADSVKGRFTISRDNAKNTVYLQMNSLIAEDTAVYFCATGDLFVYYWGYVVRLYDFWGQGTQVTVSS | low polyreactivity
27 | QVQLVESGGGLVQAGGILRLSCAASGLTFNYYDMGWYRQAPGKERELVAAISRSGTNTSYADSVKGRFTISRDNAKNTVYLQMNSLKPEDTAVYYCNSAGVYLAAGPYTANFNYNYWGQGTQVTVSS | low polyreactivity
28 | QVQLVESGGGLVQAGGILRLSCAASGNIFPINAMGWYRQAPGKEREFVAAITRSGSRTYYADSVKGRFTISRDNAKNTVYLQMNSLKKEDTAVYYCADRGNSTPVYSRYGYWGQGTQVTVSS | low polyreactivity
29 | QVQLVESGGGLVQAGGILRLSCAASGRIFAYYAMGWSRQAPGKERELVAAISGGGGSTYYADSVKGRFTISRDNAKNTVYLQMNSLKPEDTAVYYCAAKSSRYDYYYWGQGTQVTVSS | high polyreactivity
30 | QVQLVESGGGLVQAGGILRLSCAASGRIFKYNAMGWYRQAPGKERELVAVITSGGSTYYADSVKGRFTISRDNAKNTVYLQMNSLKPEDTAVYYCAKKYYKVHKFDYCGQGTQVTVSS | low polyreactivity
